Source: US20190016828A1

Key:
[1] = molecular target: human neonatal Fc-receptor (FcRn) (human) (UniProt P55899); experiment: FcRn affinity chromatography
[2] = molecular target: human neonatal Fc-receptor (FcRn) (human) (UniProt P55899); experiment: FcRn affinity chromatography, bispecific KiH antibody

Substance	RT (Min) on FcRn affinity column [1]	retention time on FcRn affinity column [2]	also measured
IgG1 Fc-region molecule with L234A/L235A/P329G and symmetric Y436A			FcRn-affinity column retention time [1]: 41.3 min
bispecific antibody (knobs-into-holes), first chain with I253A/H310A/H435A and second chain with H310A	0 min		
bispecific antibody (knobs-into-holes), first chain with I253A/H310A/H435A and second chain with I253A/H310A/H435A	0 min		
bispecific antibody (knobs-into-holes), one chain with H435A		48.8 min	
bispecific antibody (knobs-into-holes), one chain with L251D/L314D/L432D		46.3 min	
bispecific antibody (knobs-into-holes), one chain with M252Y/S254T/T256E		56.2 min	

Continued, in another order:

RT (Min) on FcRn affinity column [1]	retention time on FcRn affinity column [2]	Substance	also measured
0 min		bispecific antibody (knobs-into-holes), first chain with I253A/H310A/H435A and second chain with H435A	
	48.4 min	bispecific antibody (knobs-into-holes), one chain with H310A	
	46.7 min	bispecific antibody (knobs-into-holes), one chain with H310A/H433A/Y436A	
	48.8 min	bispecific antibody (knobs-into-holes), one chain with I253A	
